Measured values from the supplement of paper PMC10724198.
± gives the standard deviation of the averaged measurements.

Test system: Saccharomyces cerevisiae
Experiment: protein stability index of tFT-peptide fusion (C-terminal peptide) (PSI (0-1 scale)); higher = more stable (slower turnover)
Conditions: temperature: 30 C
Experimental: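 MPS profiling in S. cerevisiae of the yeast C-terminome library: the last 12 aa of each annotated ORF are fused to the C-terminus of a sfGFP-mCherry timer, after a GGGS linker. Cells are FACS-sorted into 8 mCherry/sfGFP bins and deep-sequenced. PSI runs from 0 (unstable) to 1 (stable); wild type and das1Δ backgrounds, two technical replicates each.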

[1] = genetic background: das1 deletion

Sequence | protein stability index [1] | protein stability index (genetic background: wild type)
IRKPDDKFSSFI [YOR072W C-terminal 12 aa] | 0.702 ± 0.0082 | 0.706 ± 0.032
PSSKAPSPGVNT [TEM1 C-terminal 12 aa] | 0.677 ± 0.017 | 0.64 ± 0.026
KKKLVKKTKSKK [RIO1 C-terminal 12 aa] | 0.739 ± 0.01 | 0.705 ± 0.081
HKGNGTDKVFVF [AIM33 C-terminal 12 aa] | 0.7139 ± 0.001 | 0.693 ± 0.017
RLGDVLHVCCPS [YHL049C C-terminal 12 aa] | 0.717 ± 0.03 | 0.7 ± 0.097
NSIDIGSRLSLM [PEX1 C-terminal 12 aa] | 0.704 ± 0.0078 | 0.68911 ± 4.9e-05
KGGRLSSKPIIM [SPT3 C-terminal 12 aa] | 0.683 ± 0.019 | 0.686 ± 0.034
AWDKFKLQNDIN [SWA2 C-terminal 12 aa] | 0.736 ± 0.015 | 0.698 ± 0.03
LLCFRPTRGCGP [YCL041C C-terminal 12 aa] | 0.7091 ± 0.0046 | 0.687 ± 0.013
DDDDDDDGQITA [YHR131C C-terminal 12 aa] | 0.677 ± 0.027 | 0.6663 ± 0.004
NFTTNEYFIHTS [YNL226W C-terminal 12 aa] | 0.7352 ± 0.0013 | 0.737 ± 0.018
QKLHAIDGEDEL [GPI17 C-terminal 12 aa] | 0.688 ± 0.017 | 0.649 ± 0.028
ETLAKLREQGLM [TOM70 C-terminal 12 aa] | 0.6797 ± 0.0058 | 0.692 ± 0.015
SKMLKNKIPLKN [YGL138C C-terminal 12 aa] | 0.667 ± 0.0083 | 0.685 ± 0.039
NEQFDHKFDETL [APL4 C-terminal 12 aa] | 0.726 ± 0.015 | 0.671 ± 0.01
FFVFLFWWIFLK [SEC22 C-terminal 12 aa] | 0.155 ± 0.019 | 0.131 ± 0.015
LSIAAGVGFALV [GAS1 C-terminal 12 aa] | 0.657 ± 0.007 | 0.653 ± 0.0083
VYEYIVNVNEYA [CPS1 C-terminal 12 aa] | 0.6949 ± 0.0031 | 0.682 ± 0.0094
EPNGYIKNLKWT [RXT3 C-terminal 12 aa] | 0.713 ± 0.023 | 0.633 ± 0.034
TRMNVSHYYIIT [YOL166C C-terminal 12 aa] | 0.6573 ± 0.0038 | 0.641 ± 0.019
PKSNMYYSWTQL [ORC4 C-terminal 12 aa] | 0.7112 ± 0.0057 | 0.68625 ± 0.00028

Sequence | protein stability index [1] | protein stability index (genetic background: wild type)
LNRKWYTRFFFP [MNN10 C-terminal 12 aa] | 0.732 ± 0.012 | 0.702 ± 0.035
DPNGILNPYKYI [DLD2 C-terminal 12 aa] | 0.708 ± 0.024 | 0.6117 ± 0.003
TDNGSVLPLNPS [BAS1 C-terminal 12 aa] | 0.696 ± 0.015 | 0.697 ± 0.028
SDEEPSSKKRKV [VPS75 C-terminal 12 aa] | 0.703 ± 0.035 | 0.678 ± 0.01
TRRVAARKGKLS [UTR5 C-terminal 12 aa] | 0.686 ± 0.0091 | 0.32 ± 0.014
IHNDIPSHRKLK [FIR1 C-terminal 12 aa] | 0.699 ± 0.022 | 0.6589 ± 0.0014
LMKLFKSSKFSK [GEM1 C-terminal 12 aa] | 0.724 ± 0.024 | 0.694 ± 0.077
CRGIAEVNMKYT [PPS1 C-terminal 12 aa] | 0.6869 ± 0.0036 | 0.6326 ± 0.0059
HFKTLVEAFTRN [VPS52 C-terminal 12 aa] | 0.709 ± 0.0082 | 0.714 ± 0.047
LLDAIELYQRHK [HEM4 C-terminal 12 aa] | 0.698 ± 0.017 | 0.6704 ± 0.0026
DLKIYLQQDESL [YEL023C C-terminal 12 aa] | 0.709 ± 0.028 | 0.672 ± 0.015
PFGNGFKMNFGL [JEM1 C-terminal 12 aa] | 0.736 ± 0.038 | 0.677 ± 0.058
TSAFNKLHIVEE [YAK1 C-terminal 12 aa] | 0.712 ± 0.024 | 0.67 ± 0.045
DVKPQENGNDSS [REG1 C-terminal 12 aa] | 0.71 ± 0.014 | 0.705 ± 0.037
SMPLYKDVQKDA [RBK1 C-terminal 12 aa] | 0.717 ± 0.027 | 0.665 ± 0.015
WKLAKLQIDEAL [SNX41 C-terminal 12 aa] | 0.693 ± 0.0081 | 0.6896 ± 0.0063
KNHDFKDCADIF [SWH1 C-terminal 12 aa] | 0.721 ± 0.017 | 0.688 ± 0.043
LTTISLYLMLKL [YGL262W C-terminal 12 aa] | 0.382 ± 0.021 | 0.351 ± 0.0079
IDLLAENTKTPI [COA1 C-terminal 12 aa] | 0.6964 ± 0.0031 | 0.697 ± 0.018
EFTDEWFKEHSS [STH1 C-terminal 12 aa] | 0.757 ± 0.0035 | 0.719 ± 0.0073
